Reference: patent US20090035300A1 (published 2009)

Target: FLAG-CtBP1 (full-length CtBP1 in pFLAG-CMV-2), expressed in 293 HEK cells (UniProt Q13363 1-440)
Assay: co-immunoprecipitation from transfected 293 HEK cells
Method: 293 HEK cells (8×10⁵) were plated in 6-well plates and transfected with 10 μl Lipofectamine 2000 (Invitrogen Life Technologies) and 1 μg of DNA. Cells were harvested one day after transfection. THP-1 cells (4×10⁶) were brought to a final volume of 0.8 ml and electroporated with 20 μg of DNA in total. Electroporation took place in a 0.2-cm cuvette (Bio-Rad) at 300 V and 960 μF. Day 6 immature human Mo-DCs were transduced with Ad5fib35hDC-SCRIPT-green fluorescence protein (GFP) at a multiplicity of infection of 1000 as described previously (Crucell, Leiden, the Netherlands) (Havenga, M J E et al. (2002) J. Virol. 76, 4612-4620.).
Whole cell lysates were prepared in 1% SDS standard lysis buffer. Equal amounts of protein were separated by SDS-PAGE electrophoresis and proteins were transferred to Protran Nitrocellulose Transfer Membrane (Schleicher and Schuell BioScience). The following primary antibodies were used; Mouse anti-GFP (0.04 μg/ml; Roche), mouse anti-myc (0.2 μg/ml; Invitrogen Life Technologies), M2 mouse anti-FLAG 1 μg/ml (Sigma-Aldrich), mouse anti-Epstein-Barr Virus (anti-EBV) mAb, BZLF1 Protein, ZEBRA, clone BZ.1 (DakoCytomation) in combination with a second HRP conjugated Goat anti-Mouse IgG (H+L) antibody (0.4 μg/ml; Pierce). Inmmunoprecipitation was performed in a standard RIPA/1% Triton X-100 buffer for 3 h at 4° C., using protein G beads. […]

Row | binding result | Binder
1 | no binding | YFP fusion of the acidic region of DC-SCRIPT with both motifs mutated (L593A and L648A) (pEYFP-C1), expressed in 293 HEK cells (other, also called Ac/double mut; not shown: yellow fluorescence protein (YFP) encoded by pEYFP-C1) EQEEPFDASQKRRAKVPVFQSDGESAQGSHCHEEEEEDNCYEVEPYSPGLAPQSQQLCTPEDASTKSEHAPEVLEEACKEEKEDASKGEWEKRSKGDLGAEGGQE
2 | no binding | YFP fusion of the acidic region of DC-SCRIPT with the first motif mutated (L593A) (pEYFP-C1), expressed in 293 HEK cells (other, also called Ac/mut1; not shown: yellow fluorescence protein (YFP) encoded by pEYFP-C1) EQEEPFDASQKRRAKVPVFQSDGESAQGSHCHEEEEEDNCYEVEPYSPGLAPQSQQLCTPEDLSTKSEHAPEVLEEACKEEKEDASKGEWEKRSKGDLGAEGGQE
